For one test, the target named is Her3-Fc (R&D Systems) (UniProt P21860). Kind of test: SPR, Biacore T100; bispecific antibody captured (about 90 to 120 RU) by human Fab binder on a CM5 chip, Her3-Fc injected at various concentrations.
The target in test [1] is T1, human c-Met/Fc fusion protein (R&D Systems) (human, UniProt P08581 25-932).
T1 construct: Bought reagent; also called human c-Met/Fc protein; not shown: Fc part of the bought fusion protein, not described
Kind of test: ELISA, human c-Met/Fc fusion protein coated on the plate, hybridoma culture added. Here is the method: Human c-Met/Fc fusion protein was seeded in an amount of […] (2 μg/mL)/well to microtiter plates and allowed to adhere to the surface of each well. The […] that remained unbound was removed by washing.
The hybridoma cell culture obtained in Reference Example 1.1.2 was added in an amount of […] to each well of the plates and incubated for 1 hour. The cells remaining unreacted were washed out with a sufficient amount of Tris-buffered saline and Tween 20 (TBST). Goat anti-mouse IgG-horseradish peroxidase (HRP) was added to the plates and incubated for 1 hour at room temperature. The plates were washed with a sufficient amount of TBST, followed by reacting the peroxidase with a substrate (OPD). Absorbance at 450 nm was measured on an ELISA reader.

From patent publication US20150210766A1 (SAMSUNG ELECTRONICS, published 2015) come the findings set out here.

T1 sequence (P08581 25-932 limits assumed): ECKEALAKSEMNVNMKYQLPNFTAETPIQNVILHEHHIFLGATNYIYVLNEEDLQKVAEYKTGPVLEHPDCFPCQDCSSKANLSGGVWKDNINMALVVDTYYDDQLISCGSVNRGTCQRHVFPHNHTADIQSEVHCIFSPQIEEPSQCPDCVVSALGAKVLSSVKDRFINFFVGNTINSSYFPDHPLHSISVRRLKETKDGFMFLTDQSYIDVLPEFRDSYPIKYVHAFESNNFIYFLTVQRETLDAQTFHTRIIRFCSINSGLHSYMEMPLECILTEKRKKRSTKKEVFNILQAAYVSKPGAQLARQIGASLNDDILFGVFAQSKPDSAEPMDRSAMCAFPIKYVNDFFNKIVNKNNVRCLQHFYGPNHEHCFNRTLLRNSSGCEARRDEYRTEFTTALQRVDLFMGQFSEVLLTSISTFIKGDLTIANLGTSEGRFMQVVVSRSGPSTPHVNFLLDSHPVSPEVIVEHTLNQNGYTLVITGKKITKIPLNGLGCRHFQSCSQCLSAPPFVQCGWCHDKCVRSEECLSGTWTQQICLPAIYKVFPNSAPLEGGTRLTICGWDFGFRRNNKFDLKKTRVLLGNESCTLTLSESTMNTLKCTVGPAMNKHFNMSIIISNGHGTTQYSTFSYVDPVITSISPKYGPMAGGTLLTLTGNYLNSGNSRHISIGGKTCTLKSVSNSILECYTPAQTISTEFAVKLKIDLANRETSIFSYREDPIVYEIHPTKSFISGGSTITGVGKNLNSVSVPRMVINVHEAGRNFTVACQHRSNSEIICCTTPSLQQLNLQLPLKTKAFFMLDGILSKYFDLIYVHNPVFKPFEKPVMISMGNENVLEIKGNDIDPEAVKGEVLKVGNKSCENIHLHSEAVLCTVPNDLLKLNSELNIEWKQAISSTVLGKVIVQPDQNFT
Her3-Fc (R&D Systems), sequence (P21860 20-643 limits assumed): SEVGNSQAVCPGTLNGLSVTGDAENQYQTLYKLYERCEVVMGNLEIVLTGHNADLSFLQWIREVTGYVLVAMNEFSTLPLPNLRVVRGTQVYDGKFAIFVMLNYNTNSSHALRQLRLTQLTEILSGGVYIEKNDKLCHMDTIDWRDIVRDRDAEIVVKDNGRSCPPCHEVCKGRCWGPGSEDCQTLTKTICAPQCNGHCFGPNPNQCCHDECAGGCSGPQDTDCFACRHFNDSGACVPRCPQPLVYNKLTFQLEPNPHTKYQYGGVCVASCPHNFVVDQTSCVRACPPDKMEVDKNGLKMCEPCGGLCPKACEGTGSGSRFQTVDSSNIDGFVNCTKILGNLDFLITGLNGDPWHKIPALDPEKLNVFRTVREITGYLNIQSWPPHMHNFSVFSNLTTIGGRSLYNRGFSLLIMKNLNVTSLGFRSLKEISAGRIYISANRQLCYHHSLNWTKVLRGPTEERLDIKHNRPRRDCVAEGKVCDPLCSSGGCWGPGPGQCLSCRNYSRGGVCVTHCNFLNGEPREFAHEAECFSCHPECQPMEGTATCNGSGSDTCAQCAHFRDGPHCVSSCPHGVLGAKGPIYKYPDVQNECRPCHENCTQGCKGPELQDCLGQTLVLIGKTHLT

B1: MH3-05, anti-c-Met/anti-Her3 bispecific antibody in which the modified anti-Her3 scFv is fused at the c-terminal of L3-1Y-IgG2 (bispecific antibody, part only; not given: nothing needed for Her3 binding, not shown: another chain or arm of the molecule; small tags and cut ends)
heavy: EVQLVESGGGLVQPGGSLRLSCAASGFTFTDYYMSWVRQAPGKGLEWLGFIRNKANGYTTEYSASVKGRFTISRDNSKNTLYLQMNSLRAEDTAVYYCARDNWFAYWGQGTLVTVSSASTKGPSVFPLAPCSRSTSESTAALGCLVKDYFPEPVTVSWNSGALTSGVHTFPAVLQSSGLYSLSSVVTVPSSNFGTQTYTCNVDHKPSNTKVDKTVERKCCVECPPCPAPPVAGPSVFLFPPKPKDTLMISRTPEVTCVVVDVSHEDPEVQFNWYVDGVEVHNAKTKPREEQFNSTFRVVSVLTVVHQDWLNGKEYKCKVSNKGLPAPIEKTISKTKGQPREPQVYTLPPSREEMTKNQVSLTCLVKGFYPSDIAVEWESNGQPENNYKTTPPMLDSDGSFFLYSKLTVDKSRWQQGNVFSCSVMHEALHNHYTQKSLSLSPGKGGGGSGGGGSQVQLQESGGGLVKPGGSLRLSCAASGFTFSSYSMNWVRQAPGKGLEWVSSISSSSSYIYYADSVKGRFTISRDNAKNSLYLQMNSLRAEDTAVYYCAREDLTPFDYWGQGTLVTVSS
VL: LPVLTQPPSVSVAPGQTARITCGGDNIGSKSVHWYQQKPGQAPVLVVYDDSDRPSGIPERISGSNSGNTATLTISRVEAGDEADFYCQVWDNSVDLLFGGGTKLTVL
light: DIQMTQSPSSLSASVGDRVTITCKSSQSLLASGNQNNYLAWYQQKPGKAPKMLIIWASTRVSGVPSRFSGSGSGTDFTLTISSLQPEDFATYYCQQSYSRPYTFGQGTKVEIKRTVAAPSVFIFPPSDEQLKSGTASVVCLLNNFYPREAKVQWKVDNALQSGNSQESVTEQDSKDSTYSLSSTLTLSKADYEKHKVYACEVTHQGLSSPVTKSFNRGEC
modifications: In the real molecule the scFv-VL chain is joined covalently to the C-terminus of the heavy chain's VH (SEQ 115) through the undisclosed linker. It is written as a separate chain only because that linker has no letters.
Take B1: the Kd with Her3-Fc (R&D Systems) came out at 0.55 nM.

B2: AbF46, mouse monoclonal antibody to c-Met (hybridoma KCLRF-BP-00220) (antibody, V domains shown)
VH: EVKLVESGGGLVQPGGSLRLSCATSGFTFTDYYMSWVRQPPGKALEWLGFIRNKANGYTTEYSASVKGRFTISRDNSQSILYLQMDTLRAEDSATYYCARDNWFAYWGQGTLVTVSA
VL: DILMTQSPSSLTVSAGEKVTMSCKSSQSLLASGNQNNYLAWHQQKPGRSPKMLIIWASTRVSGVPDRFIGSGSGTDFTLTINSVQAEDLAVYYCQQSYSAPLTFGAGTKLELK
notes: Tested as hybridoma culture in the screening ELISA; the single clone selected produces AbF46; also called mouse antibody AbF46
For the molecule B2, the binding result in test [1] is reported as “binds”.
